# Laboratory results from patent CN113185610A (UNIV NORTHWEST A&F, dated 2021).
# B1: 抗金黄色葡萄球菌肠毒素A纳米抗体Anti-SEA-Nb A150 (VHH)
# VHH: ESGGGLVQAGGSLRLSCTTSGFTFDDYAMGWFRQAPGKEREGVSCINWNGANAYYADSVKGRFTISRDNNKNTLYLQMNSLKPEDTALYYCAAGRMPILDDHGYVYWGQGTQVTVS
# Biological target: T1, 金黄色葡萄球菌肠毒素B (Staphylococcus aureus, UniProt P01552 28-266)
# T1 construct: Coated at 500 ng/mL
# T1 sequence: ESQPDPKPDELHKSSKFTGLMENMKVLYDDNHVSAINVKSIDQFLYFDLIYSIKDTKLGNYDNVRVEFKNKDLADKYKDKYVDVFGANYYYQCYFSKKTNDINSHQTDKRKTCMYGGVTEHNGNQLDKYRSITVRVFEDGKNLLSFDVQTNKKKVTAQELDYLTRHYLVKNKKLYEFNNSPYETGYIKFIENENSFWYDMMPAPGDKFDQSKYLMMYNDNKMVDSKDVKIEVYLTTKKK
# Assay: ELISA, coated antigen, HRP-conjugated nanobody, OD450
binder,measurement,value
B1,binding result,no binding (tested: 500ng/mL (coated))
